Consider two molecules from PMC11154707, “Polymer-based antibody mimetics (iBodies) target human PD-L1 and function as a potent immune checkpoint blocker” (The Journal of Biological Chemistry, 2024).

Assay [1] concerns the target T1, human PD-L1, membrane-bound, on hPD-L1-transfected CHO cells (human, UniProt Q9NZQ7 19-290).
T1 construct: The catalogue suffix -CH may mean a C-terminal His tag (surmise); also called CHO PD-L1; source: CHO cells, stably transfected (pCMV3-full-length human PD-L1, hygromycin selection), on cells
Nature of the assay: flow cytometry on cells; dilution series on hPD-L1-transfected and wild-type CHO cells in PBS, 30 min at 4 °C; ATTO488 fluorescence; EC50 from MFI by 4-parameter logistic fit. The note with it: one partner purified. A general note: In flow cytometry, cells or beads pass a laser one at a time.

Assay [2] addresses T2, recombinant human PD-L1 extracellular domain (residues 19–239), His-tagged (human, UniProt Q9NZQ7 19-239).
T2 construct: programmed death-ligand 1 (PD-L1/CD274/B7-H1), human, extracellular domain residues 19-239, subcloned from pCMV3-full-length human PD-L1 into pTT28; probably removed on secretion (surmise); also called rhPD-L1; recombinant extracellular hPD-L1; source: HEK293-6E, transiently transfected, secreted, purified (Ni-NTA Agarose, dialysis); not shown: His8, C-terminal, kept
Nature of the assay: ELISA; 100 ng/well rhPD-L1 coated directly on the plate (TBS, 1 h RT), casein block; dilution series of biotinylated binder in TBS with 0.1% Tween-20, 1 h RT; neutravidin-HRP, chemiluminescence; EC50 by 4-parameter logistic fit. The note with it: both partners purified. In general terms: In an ELISA, binding on a coated surface is turned into a signal by an enzyme label.

Assay [3] concerns the target T2, recombinant human PD-L1 extracellular …. In words: ELISA; 100 ng/well rhPD-L1 coated directly on the plate, casein block; dilution series of ATTO488-WL12 in TBS with 0.1% Tween-20, 1 h RT; read by ATTO488 fluorescence intensity; EC50 by 4-parameter logistic fit. The note with it: both partners purified.

T1 sequence (Q9NZQ7 19-290): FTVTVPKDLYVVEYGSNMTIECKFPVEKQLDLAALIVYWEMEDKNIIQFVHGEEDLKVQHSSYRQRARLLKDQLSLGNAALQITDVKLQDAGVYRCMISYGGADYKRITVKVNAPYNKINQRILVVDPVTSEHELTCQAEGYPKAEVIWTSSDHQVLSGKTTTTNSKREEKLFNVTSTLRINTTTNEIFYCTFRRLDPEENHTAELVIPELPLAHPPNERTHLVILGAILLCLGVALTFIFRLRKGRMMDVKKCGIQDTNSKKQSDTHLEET
T2 sequence (Q9NZQ7 19-239): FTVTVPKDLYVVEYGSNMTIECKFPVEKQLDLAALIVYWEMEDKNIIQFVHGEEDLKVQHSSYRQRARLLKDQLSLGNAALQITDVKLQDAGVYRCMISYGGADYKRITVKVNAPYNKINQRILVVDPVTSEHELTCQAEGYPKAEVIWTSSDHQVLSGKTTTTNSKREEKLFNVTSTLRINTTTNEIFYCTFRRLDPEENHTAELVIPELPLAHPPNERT

B1: iBody 1 (HPMA copolymer carrying WL12, ATTO488 and biotin) (other)
chain: YANPHLPWSWXXXCG
modifications: ClAc on the N-terminus (peptide cyclised, macrocyclic); MeAla at 2; Hyp at 7; Trp(Me) at 10; MeNle at 11 and 12; Orn at 13; C-terminal amide; amino group of the peptide bound to the HPMA copolymer
For orientation: EC50 means the concentration giving half of the maximal effect. B1: the EC50 in assay [1] is 6.6 nM; in assay [2] it was 0.29 nM.

B2: ATTO488-WL12 (peptide)
chain: YANPHLPWSWXXXCG
modifications: ClAc on the N-terminus (peptide cyclised, macrocyclic); MeAla at 2; Hyp at 7; Trp(Me) at 10; MeNle at 11 and 12; Orn at 13; C-terminal amide; ATTO488 fluorophore (site not told in the text shown)
For B2, the values for the EC50 in assay [1] and in assay [3] were 270 nM and 5.3 nM, respectively.
